Where two headings read alike, the source gives them in different places.

Assay [1] has as its target T1, human CD200R (human, UniProt Q8TD46).
T1 chain: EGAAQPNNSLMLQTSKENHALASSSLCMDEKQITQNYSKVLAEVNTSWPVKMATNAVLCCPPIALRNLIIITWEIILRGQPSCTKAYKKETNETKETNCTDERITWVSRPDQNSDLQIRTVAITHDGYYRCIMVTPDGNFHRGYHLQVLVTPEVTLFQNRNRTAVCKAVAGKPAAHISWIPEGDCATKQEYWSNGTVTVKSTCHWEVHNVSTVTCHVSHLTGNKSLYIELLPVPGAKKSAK
Nature of the assay: SPR, 25C.

Assay [2] has as its target T2, murine CD200R1 (mouse, UniProt Q9ES57).
T2 chain: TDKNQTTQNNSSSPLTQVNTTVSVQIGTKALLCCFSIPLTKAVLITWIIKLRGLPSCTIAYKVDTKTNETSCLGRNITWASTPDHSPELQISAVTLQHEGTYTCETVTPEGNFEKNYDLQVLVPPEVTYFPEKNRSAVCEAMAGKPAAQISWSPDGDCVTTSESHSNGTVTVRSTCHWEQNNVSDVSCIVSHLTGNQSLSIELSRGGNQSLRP
Kind of assay: SPR, 25C.

Assay [3] addresses T1, human CD200R. Nature of the assay: SPR, 25C. A general note: Surface plasmon resonance follows binding to a sensor surface in real time, without labels.
The target of a further assay is T3, human CD200R1L (human, UniProt Q6Q8B3).
T3 chain: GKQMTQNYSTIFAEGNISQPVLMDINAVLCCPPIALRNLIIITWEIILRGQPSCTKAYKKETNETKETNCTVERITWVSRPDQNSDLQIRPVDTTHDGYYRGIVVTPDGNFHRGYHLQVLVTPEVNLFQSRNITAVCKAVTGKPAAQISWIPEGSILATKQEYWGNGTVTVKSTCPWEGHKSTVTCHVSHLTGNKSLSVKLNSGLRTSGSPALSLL
Kind of assay: SPR, 25C.

Assay [4] addresses T2, murine CD200R1. Nature of the assay: SPR.

B1: DS-118 (antibody)
chain: QVQVVTQDEREQLYTPASLKCSLQNAQEALIVTWQKKKAVSPENMVTFSENHGVVIQPAYKDKINITQLGLQNSTITFWNITLEDEGCYMCLFNTFGFGYYSGTACLTVYVQPIVSLHYKFSEDHLNITCSATARPAPMVFWKVPRSGIENSTVTLSHPNGTTSVTSILHIKDPKNQVGKEVICQVLHLGTVTDFKQTVNKGPPCPPCPAPEFLGGPSVFLFPPKPKDTLMISRTPEVTCVVVDVSQEDPEVQFNWYVDGVEVHNAKTKPREEQFNSTYRVVSVLTVLHQDWLNGKEYKCKVSNKGLPSSIEKTISKAKGQPREPQVYTLPPSQEEMTKNQVSLTCLVKGFYPSDIAVEWESNGQPENNYKTTPPVLDSDGSFFLYSRLTVDKSRWQEGNVFSCSVMHEALHNHYTQKSLSLSLGK
For the molecule B1, the equilibrium dissociation constant (Kd) with human CD200R [1] and with human CD200R [3] was 1.3 nM throughout. Besides, the binding result with murine CD200R1 [2] and with human CD200R1L was “no binding” in each case.

B2: DS-227 (protein)
chain: QVEVVTQDERKALHTTASLRCSLKTSQEPLIVTWQKKKAVSPENMVTYSKTYGVVIQPAYKDRINVTELGLWNSSITFWNTTLEDEGCYMCLFNIFGSQKVSGTACLTLYVQPIVHLHYNYFEDHLNITCSATARPAPAISWKGTGTGIENSTESHFHSNGTTSVTSILRVKDPKTQVGKEVICQVLYLGNVIDYKQSLDKG
In the assay with murine CD200R1 [4], B2 showed a Kd of 43.3 nM.

B3: DS-198 (protein)
chain: QVEVVTQDERKALHTTASLRCSLKTSQEPLIVTWQKKKAVSPENMVTYSKTHGVVIQPAYKDRINVTELGLWNSSITFWNTTLEDEGCYMCLFNTFGSQKVSGTACLTLYVQPIVHLHYNYFEDHLNITCSATARPAPAISWKGTGTGIENSTESHFHSNGTTSVTSILRVKDPKTQVGKEVICQVLYLGNVIDYKQSLDKG
modifications: wild-type murine CD200 fused to murine IgG2a Fc
In turn, B3 returned a Kd with murine CD200R1 [4] of 584 nM.

B4: DS-20 (antibody)
chain: QVQVVTQDEREQLYTPASLKCSLQNAQEALIVTWQKKKAVSPENMVTFSENHGVVIQPAYKDKINITQLGLQNSTITFWNITLEDEGCYMCLFNTFGFGKISGTACLTVYVQPIVSLHYKFSEDHLNITCSATARPAPMVFWKVPRSGIENSTVTLSHPNGTTSVTSILHIKDPKNQVGKEVICQVLHLGTVTDFKQTVNKG
modifications: wild-type CD200 ectodomain fused to human IgG1 Fc (dimer); UniProt numbering
For the molecule B4, the binding result with murine CD200R1 [2] and with human CD200R1L was “no binding” throughout. Binding with human CD200R [3] was put at a Kd of 111 nM.

B5: DS-155 (antibody)
chain: QVQVVTQDEREQLYTPASLKCSLQNAQEALIVTWQKKKAVSPENMVTFSENHGVVIQPAYKDKINITQLGLQNSTITFWNITLEDEGCYMCLFNTFGFGKISGTACLTVYVQPIVSLHYKFSEDHLNITCSATARPAPMVFWKVPRSGIENSTVTLSHPNGTTSVTSILHIKDPKNQVGKEVICQVLHLGTVTDFKQTVNKG
modifications: wild-type CD200 ectodomain fused to human IgG4 S228P Fc (dimer); UniProt numbering
Consider B5, for which the equilibrium dissociation constant (Kd) with human CD200R [1] and with human CD200R [3] was 179 nM throughout. Besides, the binding result in the assay with murine CD200R1 [2] and with human CD200R1L was “no binding” throughout.

As usually defined, the Kd is the equilibrium constant for the complex coming apart.
